Experimental findings from the Human Domainome abundance scans (Beltran et al. 2025) are described below.

± gives the uncertainty stated by the source.

The labels stand for the following.
B1: Zinc finger MYM-type protein 3, residues 589 to 668; numbered along this chain, Q14202 (parent)
chain: LSCHYCHSLFSGKPEVLDWQDQVFQFCCRDCCEDFKRLRGVVSQCEHCRQEKLLHEKLRFSGVEKSFCSEGCVLLYKQDF

In the data set the parent is B1. Kind of data set: abundance fitness (aPCA) (normalised: wild type 0, dead -1); higher = more abundant; growth selection in yeast, the domain comes from the species named. The conditions noted are these: Homo sapiens.
LSCHYCHSLFSGKPEVLDWQDQVFQFCCRDCCEDFKRLRGVVSQCEHCRQEKLLHEKLRFSGVEKSFCPEGCVLLYKQDF: the abundance fitness was -0.445 ± 0.29. As for LSCHYCHSDFSGKPEVLDWQDQVFQFCCRDCCEDFKRLRGVVSQCEHCRQEKLLHEKLRFSGVEKSFCSEGCVLLYKQDF, the abundance fitness was -0.073 ± 0.056. Consider LSCHYCHSLFSGKPEVLQWQDQVFQFCCRDCCEDFKRLRGVVSQCEHCRQEKLLHEKLRFSGVEKSFCSEGCVLLYKQDF, for which the abundance fitness stood at 0.067 ± 0.056. Regarding LSCHYCHSLFSGKPEVLDWQDQVFQFCCRDCCEDFKRLRGVVSQCEHCRQEKSLHEKLRFSGVEKSFCSEGCVLLYKQDF, the abundance fitness is -0.154 ± 0.13. Consider LSCHYCHSLFSGKPEVLDWQDQVFQFCCRDCCEDFKRLRGVVSQCEHCRQEVLLHEKLRFSGVEKSFCSEGCVLLYKQDF, for which the abundance fitness was -0.478 ± 0.22. As for LSCHYCHSLFSGKPEVLDCQDQVFQFCCRDCCEDFKRLRGVVSQCEHCRQEKLLHEKLRFSGVEKSFCSEGCVLLYKQDF, the figure is 0.276 ± 0.05; as for LSCHYCHSLFSGKPEVLDWQDQVTQFCCRDCCEDFKRLRGVVSQCEHCRQEKLLHEKLRFSGVEKSFCSEGCVLLYKQDF, -0.033 ± 0.048; as for LSCHYCHSLFSGKPEVLDWQDQVFQFCCRDCCEDFKRLRGVVSQCRHCRQEKLLHEKLRFSGVEKSFCSEGCVLLYKQDF, -0.741 ± 0.16. In the case of LSCHYCHSLFSGKPEVTDWQDQVFQFCCRDCCEDFKRLRGVVSQCEHCRQEKLLHEKLRFSGVEKSFCSEGCVLLYKQDF, the abundance fitness is -0.06 ± 0.05. For LSCHYCHSLFSGKPEVWDWQDQVFQFCCRDCCEDFKRLRGVVSQCEHCRQEKLLHEKLRFSGVEKSFCSEGCVLLYKQDF, the abundance fitness was -0.135 ± 0.062. As for LTCHYCHSLFSGKPEVLDWQDQVFQFCCRDCCEDFKRLRGVVSQCEHCRQEKLLHEKLRFSGVEKSFCSEGCVLLYKQDF, the figure is -0.051 ± 0.068.

Regarding LSCHYCHSLFSGKPEVLDWQDQVFQFCCRDCCEDFKRLRGNVSQCEHCRQEKLLHEKLRFSGVEKSFCSEGCVLLYKQDF, the abundance fitness amounted to 0.317 ± 0.31. In the case of LSCHYCHSLFSGKPEVLDWQDQVFQFCCRDCCEDSKRLRGVVSQCEHCRQEKLLHEKLRFSGVEKSFCSEGCVLLYKQDF, the abundance fitness is -0.411 ± 0.055. Take LSCHYCHSLFSGKPEVLDWQDQVFQFCCRDCCEDFKRLRGVVSQCEHCRQEKLLHEKLRFSGVEKSHCSEGCVLLYKQDF: the abundance fitness was determined as 0.092 ± 0.13.

With NSCHYCHSLFSGKPEVLDWQDQVFQFCCRDCCEDFKRLRGVVSQCEHCRQEKLLHEKLRFSGVEKSFCSEGCVLLYKQDF, the abundance fitness amounted to 0.239 ± 0.11. With LSCHYCHSLFSGKPEVLDWQDQVFQFCCRDCCEDFKRLRGVVSQCEHCRQEKLLHEKLRFSGVEKRFCSEGCVLLYKQDF, the abundance fitness is -0.059 ± 0.085. Consider LSCHYCHSLFSGKPEVLDWQDQVFQFCCRDCCEDFKRLRGVVSQCEHCRQEKLLHEKLRFSGVEKSFCSEGCVLLYKQDG, for which the abundance fitness came out at 0.033 ± 0.14.

With LSCHYCHSLFSGKPEVLDWQDQVFQFCCRDCCEDFKRLRGVVSQCEHCRQEKLLHEGLRFSGVEKSFCSEGCVLLYKQDF, the abundance fitness was -0.493 ± 0.11. Regarding LSCHYCHSLFSGKPEVLDWQDQVFQFCCRDCCEDFKRLRGVVSQCEHCRQEKLLHEELRFSGVEKSFCSEGCVLLYKQDF, the abundance fitness is -0.256 ± 0.17.

Regarding LSCHYCHSLFSGKVEVLDWQDQVFQFCCRDCCEDFKRLRGVVSQCEHCRQEKLLHEKLRFSGVEKSFCSEGCVLLYKQDF, the abundance fitness is -0.246 ± 0.054. Take LSCHYCHSLFSGKPEVLDWQDQVFQFCCRDCCEDFKRLRGVVSQCEHCRQEKLLHEKLRFSGVWKSFCSEGCVLLYKQDF: the abundance fitness is -0.176 ± 0.22.

For LSCHYCHSLFSGKPEVLDWQDQVFQFCCRDCCEDFKRLRGVVSQCEHCRQEKLLHEKLRFSGVLKSFCSEGCVLLYKQDF, the abundance fitness is -0.633 ± 0.25. Take LSCHYPHSLFSGKPEVLDWQDQVFQFCCRDCCEDFKRLRGVVSQCEHCRQEKLLHEKLRFSGVEKSFCSEGCVLLYKQDF: the abundance fitness is -0.949 ± 0.13. With LSCHYCHSLFSGKPEVLDWQDQVFQFCCRDCCEDFKRLRGVVSQCEHCRQEKLLHEKLRFSGVEKSFCSEGCVLLYKVDF, the abundance fitness was -0.833 ± 0.16.

With LSCHYCHSLFSGKPEVLDWQDQVFQFCCRDCCEDFKRLRGVVSQCEHCRQEKLLHEKLRFSGVEKSFWSEGCVLLYKQDF, the abundance fitness was -1.18 ± 0.37. As to LSCHYCHSLFSGKPEVLDWQDQVFQFVCRDCCEDFKRLRGVVSQCEHCRQEKLLHEKLRFSGVEKSFCSEGCVLLYKQDF, the abundance fitness is -0.692 ± 0.06. In the case of LSCHYCHSLFSGKPEVLDWQDQVFQFCCRDCCEDFKRVRGVVSQCEHCRQEKLLHEKLRFSGVEKSFCSEGCVLLYKQDF, the abundance fitness is 0.013 ± 0.059.

Regarding LSCHYCHSLFSGKPEVLDWQDQVFQFCCRDCCEDFKRLRGVVSECEHCRQEKLLHEKLRFSGVEKSFCSEGCVLLYKQDF, the abundance fitness was found to be 0.49 ± 0.088. As to LSCHYCHSLFSGKPEVLDWQDQVFQFCCRDCCEDFKRLRGVVSQCEHCRQEKLLHEKLRFSGVEKSFCSEECVLLYKQDF, the abundance fitness was determined as 0.62 ± 0.085. Regarding LSCHYCHSLFSGKPEVLDWQDQVFQFCCRDCCEDFKELRGVVSQCEHCRQEKLLHEKLRFSGVEKSFCSEGCVLLYKQDF, the abundance fitness is -0.084 ± 0.18. In the case of LSCHYCHSLFSGKPEVLDWQDQAFQFCCRDCCEDFKRLRGVVSQCEHCRQEKLLHEKLRFSGVEKSFCSEGCVLLYKQDF, the abundance fitness turned out to be 0.023 ± 0.041.

For LSCHYCHSLFSGKPEVLDWQDQVFYFCCRDCCEDFKRLRGVVSQCEHCRQEKLLHEKLRFSGVEKSFCSEGCVLLYKQDF, the abundance fitness was 0.025 ± 0.059. Consider LSCHYCHSLFSGKPEVLDWQDQVFQFCCRDCCEDFKRLRGVVSQCEHCRQEKLLHEKLRFSGVEKSFCSEGCVLLYLQDF, for which the abundance fitness was -0.304 ± 0.18. For LSCHYCHSLFSGKPEVLDWQDQVFQFCCRGCCEDFKRLRGVVSQCEHCRQEKLLHEKLRFSGVEKSFCSEGCVLLYKQDF, the abundance fitness was 0.057 ± 0.038. Regarding LSCHYCHSLFSGKPEVLDWQDQVFQFCCRDCYEDFKRLRGVVSQCEHCRQEKLLHEKLRFSGVEKSFCSEGCVLLYKQDF, the abundance fitness was found to be 0.067 ± 0.059.
